From IntAct's records for PubMed 21720390

B1: NAD-dependent protein deacetylase sirtuin-3, mitochondrial (Homo sapiens), Q9NTG7 (parent)
chain: MAFWGWRAAAALRLWGRVVERVEAGGGVGPFQACGCRLVLGGRDDVSAGLRGSHGARGEPLDPARPLQRPPRPEVPRAFRRQPRAAAPSFFFSSIKGGRRSISFSVGASSVVGSGGSSDKGKLSLQDVAELIRARACQRVVVMVGAGISTPSGIPDFRSPGSGLYSNLQQYDLPYPEAIFELPFFFHNPKPFFTLAKELYPGNYKPNVTHYFLRLLHDKGLLLRLYTQNIDGLERVSGIPASKLVEAHGTFASATCTVCQRPFPGEDIRADVMADRVPRCPVCTGVVKPDIVFFGEPLPQRFLLHVVDFPMADLLLILGTSLEVEPFASLTEAVRSSVPRLLINRDLVGPLAWHPRSRDVAQLGDVVHGVESLVELLGWTEEMRDLVQRETGKLDGPDK

Variants of: B1
Details: with aldh2_human ALDH2, P05091
Chain of aldh2_human ALDH2, P05091 (P05091 whole entry): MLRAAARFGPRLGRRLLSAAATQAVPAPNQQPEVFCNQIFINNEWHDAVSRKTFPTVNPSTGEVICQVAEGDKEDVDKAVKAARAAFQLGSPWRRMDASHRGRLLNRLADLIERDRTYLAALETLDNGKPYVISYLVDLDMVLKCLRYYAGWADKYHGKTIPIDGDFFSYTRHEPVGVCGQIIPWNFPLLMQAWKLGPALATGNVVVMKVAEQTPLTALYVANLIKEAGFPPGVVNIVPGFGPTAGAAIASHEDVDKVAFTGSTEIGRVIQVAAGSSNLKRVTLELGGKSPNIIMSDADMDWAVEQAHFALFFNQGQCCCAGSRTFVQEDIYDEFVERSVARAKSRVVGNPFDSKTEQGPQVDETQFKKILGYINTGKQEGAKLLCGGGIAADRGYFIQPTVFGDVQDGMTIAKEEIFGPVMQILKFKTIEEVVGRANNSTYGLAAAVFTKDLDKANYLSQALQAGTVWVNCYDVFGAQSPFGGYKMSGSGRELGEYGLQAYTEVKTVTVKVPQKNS

effect of a mutation on the interaction	Variant
decreasing interaction	H248Y
